B3: RPA70 N-terminal domain (residues 1-120), purified (other, UniProt P27694 1-120, looked up)
chain: MVGQLSEGAIAAIMQKGDTNIKPILQVINIRPITTGNSPPRYRLLMSDGLNTLSSFMLATQLNPLVEEEQLSSNCVCQIHRFIVNTLKDGRRVVILMELEVLKSAEAVGVKIGNPVPYNE
modifications: Atto488 label
notes: range 1-120; also called RPA70 N-terminal OB1 domain; RPA70N (1-120)

Where no end group is shown, it is not given here. [ ]: non-standard residue; d: D form. pY = N[C@@H](Cc1ccc(OP(=O)(O)O)cc1)C(=O)O

In assay [1] the target is B3. The assay is described as follows: MST, 50 nM Atto488-labelled RPA70 N-terminal domain (1-120), peptide titrated [panel D].
Assay [2] has as its target T1, GRB2-SH2 domain, purified, Atto488-labelled (UniProt P62993 60-152, limits assumed, Atto488 label).
T1 construct: domain: SH2; Individual GRB2 domains generated as described before (Ahmed et al., 2010)
The experiment in a line: MST, 100 nM Atto488-labelled GRB2-SH2 domain, peptide titrated.

The target of assay [3] is T2, GRB2 (growth factor receptor-bound protein 2), wild-type, full-length, bacterially expressed and purified (UniProt P62993 1-217, Atto488 label where used as the labelled partner in MST).
T2 construct: domain: full-length; also called WTGRB2; non-ubiquitinated GRB2
The experiment in a line: MST, 50 nM Atto488-labelled RPA70 N-terminal domain (1-120), GRB2 titrated [panel D].

Assay [4] addresses T2, GRB2 (growth factor receptor-bound …). The assay is described as follows: MST with the Y111 phosphorylated MRE11 peptide.
For assay [5], the target named is T1, GRB2-SH2 domain, purified, …. The experiment in a line: MST with the Y111 phosphorylated MRE11 peptide.
Assay [6] concerns the target T3, NBS1, endogenous, in HEK293T cell extracts (UniProt O60934 1-754).
T3 sequence (looked up): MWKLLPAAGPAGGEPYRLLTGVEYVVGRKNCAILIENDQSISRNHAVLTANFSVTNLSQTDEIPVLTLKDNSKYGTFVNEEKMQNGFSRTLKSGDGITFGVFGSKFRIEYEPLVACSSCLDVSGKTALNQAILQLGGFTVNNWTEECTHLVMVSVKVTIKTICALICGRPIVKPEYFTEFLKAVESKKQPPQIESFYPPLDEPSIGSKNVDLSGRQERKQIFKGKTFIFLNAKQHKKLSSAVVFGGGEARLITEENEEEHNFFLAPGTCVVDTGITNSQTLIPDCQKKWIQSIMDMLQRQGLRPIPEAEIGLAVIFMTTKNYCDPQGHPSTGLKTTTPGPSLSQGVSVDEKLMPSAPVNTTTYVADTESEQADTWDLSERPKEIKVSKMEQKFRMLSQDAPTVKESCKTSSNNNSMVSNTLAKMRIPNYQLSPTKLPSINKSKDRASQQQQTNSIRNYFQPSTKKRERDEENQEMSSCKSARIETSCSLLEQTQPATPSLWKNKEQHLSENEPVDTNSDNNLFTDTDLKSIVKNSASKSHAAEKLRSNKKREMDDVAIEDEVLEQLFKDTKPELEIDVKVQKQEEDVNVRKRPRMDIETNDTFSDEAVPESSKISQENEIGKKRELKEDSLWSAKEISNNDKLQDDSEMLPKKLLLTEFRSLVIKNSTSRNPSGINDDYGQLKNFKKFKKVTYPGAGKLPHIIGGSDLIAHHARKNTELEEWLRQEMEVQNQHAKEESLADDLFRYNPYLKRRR
The assay is described as follows: Flag-M2 immunoprecipitation from HEK293T cells, unperturbed or 5 Gy IR, western blot. In general terms: In western blotting, separated proteins are transferred to a membrane and probed.

By Kd is commonly meant a measure of binding affinity in units of concentration.

T1 sequence (P62993 60-152 limits assumed): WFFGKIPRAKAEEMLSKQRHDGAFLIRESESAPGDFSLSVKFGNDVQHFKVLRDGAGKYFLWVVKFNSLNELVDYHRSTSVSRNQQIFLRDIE
T2 sequence (P62993 whole entry): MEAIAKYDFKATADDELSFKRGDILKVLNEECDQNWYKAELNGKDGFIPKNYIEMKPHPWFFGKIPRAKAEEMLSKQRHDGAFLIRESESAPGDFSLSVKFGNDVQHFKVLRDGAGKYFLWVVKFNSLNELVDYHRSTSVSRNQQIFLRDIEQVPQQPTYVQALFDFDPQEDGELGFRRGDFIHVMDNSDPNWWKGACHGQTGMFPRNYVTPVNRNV

B1: GRB2 OB1 peptide KYDFKATADDELSFKRG (peptide)
peptide: KYDFKATADDELSFKRG
notes: Synthetic, from GenScript; also called GRB2-derived OB1 peptide
B1 yielded a dissociation constant Kd in assay [1] of 2.1 µM. This counts as single-digit micromolar.

B2: Phosphorylated H2AX peptide PSGGKKATQASQE(pY) (pY142 only) (peptide)
peptide: PSGGKKATQASQEX
modifications: phosphotyrosine at position 14 (Y142 of H2AX)
notes: Synthetic, from GenScript; also called pY142 H2AX
With B2, the binding result in assay [2] is given as “no binding (tested: about 50 µM)”.
Molecule B3 had a dissociation constant (Kd) in assay [3] of 1.6 µM.

B4: Tyrosine-phosphorylated MRE11 peptide WVNpYQDGNLN (peptide)
peptide: WVN[pY]QDGNLN
modifications: not fully specified
notes: also called Y111 phosphorylated MRE11 peptide; tyrosine phosphorylated peptide
With B4, the figures for the Kd in assay [4] and in assay [5] were 19.7 µM and 46.8 µM, respectively.

B5: Phosphorylated H2AX peptide PSGGKKATQA(pS)QEY (pS139 only) (peptide)
peptide: PSGGKKATQAXQEY
modifications: phosphoserine at position 11 (S139 of H2AX)
notes: Synthetic, from GenScript; also called pS139 H2AX
Turning to B5, the binding result in assay [2] is recorded as “no binding”.

B6: Flag-MRE11 expressed in HEK293T cells (enzyme, UniProt P49959 1-708, looked up)
chain: MSTADALDDENTFKILVATDIHLGFMEKDAVRGNDTFVTLDEILRLAQENEVDFILLGGDLFHENKPSRKTLHTCLELLRKYCMGDRPVQFEILSDQSVNFGFSKFPWVNYQDGNLNISIPVFSIHGNHDDPTGADALCALDILSCAGFVNHFGRSMSVEKIDISPVLLQKGSTKIALYGLGSIPDERLYRMFVNKKVTMLRPKEDENSWFNLFVIHQNRSKHGSTNFIPEQFLDDFIDLVIWGHEHECKIAPTKNEQQLFYISQPGSSVVTSLSPGEAVKKHVGLLRIKGRKMNMHKIPLHTVRQFFMEDIVLANHPDIFNPDNPKVTQAIQSFCLEKIEEMLENAERERLGNSHQPEKPLVRLRVDYSGGFEPFSVLRFSQKFVDRVANPKDIIHFFRHREQKEKTGEEINFGKLITKPSEGTTLRVEDLVKQYFQTAEKNVQLSLLTERGMGEAVQEFVDKEEKDAIEELVKYQLEKTQRFLKERHIDALEDKIDEEVRRFRETRQKNTNEEDDEVREAMTRARALRSQSEESASAFSADDLMSIDLAEQMANDSDDSISAATNKGRGRGRGRRGGRGQNSASRGGSQRGRADTGLETSTRSRNSKTAVSASRNMSIIDAFKSTRQQPSRNVTTKNYSEVIEVDESDVEEDIFPTTSKTDQRWSSTSSSKIMSQSQVSKGVDFESSEDDDDDPFMNTSSLRRNRR
notes: not shown: Flag tag
For the molecule B6, the binding result in assay [6] is on record as “binds”.

These data come from patent US20230366033A1 (University of Texas, published 2023).
